{"source": "the DeepSol protein solubility set"}
{"experiment": "soluble on expression in E. coli; label from the status in PepcDB or PDB records"}
{"sequence": "AYTTFSQTKNDQLKEPMFFGQPVNVARYDQQKYDIFEKLIEKQLSFFWRPEEVDVSRDRIDYQALPEHEKHIFISNLKYQTLLDSIQGRSPNVALLPLISIPELETWVETWAFSETIHSRSFTHIIRNIVNDPSVVFDDIVTNEQIQKRAEGISSYYDELIEMTSYWHLLGEGTHTVNGKTVTVSLRELKKKLYLCLMSVNALEAIRAYVSFACSFAFAERELMEGNAKIIRLIARDEALHLTGTQHMLNLLRSGADDPEMAEIAEECKQECYDLFVQAAQQEKDWADYLFRDGSMIGLNKDILCQYVEYITNIRMQAVGLDLPFQTRSNPIPWINTWLVSDNVQVAPQEVEVSSYLVGQIDSEVDTDDLSNFQL", "soluble on expression in E. coli": "soluble"}
{"sequence": "MNLRIPWKEVYYLGYNMGNYIKISEPELLFVLRNKPQIKDRLKLDEKTIIKEGVKKYKNFWEIYYTVKDLILRGYRVRFDGFFIELYEKGIIPGTIEQDYLVYPVSGEIRMTWGELLDIYNKAIARKSKFMLAIVDSEGDVTYYEFRKLRSNK", "soluble on expression in E. coli": "soluble"}
{"sequence": "MGSSHHHHHHSSGLVPRGSHMAEQVLPQALYLSNMRKAVKIRERTPEDIFKPTNGIIHHFKTMHRYTLEMFRTCQFCPQFREIIHKALIDRNIQATLESQKKLNWCREVRKLVALKTNGDGNCLMHATSQYMWGVQDTDLVLRKALFSTLKETDTRNFKFRWQLESLKSQEFVETGLCYDTRNWNDEWDNLIKMASTDTPMARSGLQYNSLEEIHIFVLCNILRRPIIVISDKMLRSLESGSNFAPLKVGGIYLPLHWPAQECYRYPIVLGYDSHHFVPLVTLKDSGPEIRAVPLVNRDRGRFEDLKVHFLTDPENEMKEKLLKEYLMVIEIPVQGWDHGTTHLINAAKLDEANLPKEINLVDDYFELVQHEYKKWQENSEQGRREGHAQ", "soluble on expression in E. coli": "soluble"}
{"sequence": "MAHHHHHHMVSMIVAGATGAIGRTVVQYAIQQPSIDRVVALTRFRNTAVSNYENLFGIIVAGEAGNTDSRGDGANSKRKKGSGSPAGTVTATPAEAAKIRPITMDWEEFTQLWVAKRSSTSAAASGADNCAAGAAATAITDPTERYRGIFGGHTYAAMCLGTTRKDAGSAKSFTRCDYDYVMAFTEAVLAYSAPAGLSPAKAFVHHIGDGGASKQVHVQEGMGKEVDVLAAMNANAAQSSGTLRVFCQVSSSNASSSSWFLYMQTKGIADESTVERVHRHNKCATAAAALSPVNLLLLQPGLLERHGKTRATEKFAKLIMSSIPVETCGAAIVSACKSLPIQHSVQRAETTSAAEQAKHDEVEGAQVEKENNTVAAGVRKTPLGKPYVATKALCKAGMPPNEPLPYIYAANNAVITDLASRLTA", "soluble on expression in E. coli": "not soluble"}
{"sequence": "MSNITIYHNPACGTSRNTLEMIRNSGTEPTIILYLENPPSRDELVKLIADMGISVRALLRKNVEPYEQLGLAEDKFTDDQLIDFMLQHPILINRPIVVTPLGTRLCRPSEVVLDILQDAQKGAFTKEDGEKVVDEAGKRLK", "soluble on expression in E. coli": "soluble"}
{"sequence": "DKSRIAHMIDEWDGKEIIYPDDLVFTTMGEDTVKWFLKDSRYTIVTYADSIGCMGCKLKLPVWKDFISYLDSVSDHTVKVIFILHPRDKKEMVHLLEYNDFSYPVCLDIKGSFDKINKIPSNLAFQTFLLDNRNKVIAIGNPIHNPNVRTLYLNLILSDSICKS", "soluble on expression in E. coli": "not soluble"}
{"sequence": "MGSDKIHHHHHHMIAQVEPFHAIAISRLAHDLEAAGQSVIHMEFGQPSTGAPAEAIALAHEVLDNEAMGYWESVPLKERIARSYAENHGVKVEREQVILTCGASPAFVMALSCLFRPGARIALARPGYVAYRNSLKAMYLEPVEMECGPAERFQVTAAAVDALDPVPDGLIVASPANPTGTIIEPGELAAIAEVCCRKGIRVISDEIYHGLSYGKAAASMLEYLPDAVIVNSFSKYFSMAGWRLGWLVVPPSLIDAARARMGSLFLTPPVLAQKAGLKAFDCRAELDGHVETYARNRAILLEALPQMGLGRIAPPDGAFYIYADASEFTDDSLALCEALLRDTGVATAPGLDFDPVNGKRFIRFSFAVSTPLIEEAVRRIGPWFAARRAVSPAQAPS", "soluble on expression in E. coli": "not soluble"}
{"sequence": "MTAINFNSIYTTYYRRAFLFTLSYVHNDLVAEDIVSEAIIYLWELSKKQEIPSIEAVLITYIRSKSLNYLKHLQVQENVYQNLTDKGQRELEIRISTLEACDPKEVMSEELRSKVKTLLAGMPEKTRIAFISDRLDGKSHKEIAEELGISVKGVEYHISKAVKLLRDNLKEYAPFLIFFI", "soluble on expression in E. coli": "not soluble"}
{"sequence": "MHEMRELAQGSLKEMRTLIWQLRPAGLEKGLLPALKQYGESLGLKIREQVTGVRDLPRVVEEALWRIGQEALNNVSKHANVREATIYFKVTEKNVSLEIVDQGNGFVEKNIKEKKSLGMTTMRERVELVGGTIKIVSDKKRTSVKVNVPL", "soluble on expression in E. coli": "not soluble"}
{"sequence": "MSNVYWPLYEVFVRGKQGLSHRHVGSLHAADERMALENARDAYTRRSEGCSIWVVKASEIVASQPEERGEFFDPAESKVYRHPTFYTIPDGIEHM", "soluble on expression in E. coli": "soluble"}
{"sequence": "MEYPMSYTFRATFPALFLSLMLPCALPALAADPAPAKDAAAQAPVERAPLLSRSQEDAIALERQLPREDQQQLQAGDESFLALWKPANTDAPQGAVIILPGDAESPDWPDTVGPLRRKFPDVGWSSLSITLPDAQDNTLLPREPDAAAGDANAAKPEETPKDAAAKAPDPAAEAEALAAVATAKAAADEERNKAQAELIFARIESAISFAQQNKARNIVLLGHSSGAYWAARFLNERPSPAVQKLVMVAAREPVDAAPSLLAMVPGLKIKTADFIYKNPEDQAAKARLQASKRAKGPGFTQIGLINIVGNEETEQEQMFRRIRGWVEAKEEK", "soluble on expression in E. coli": "not soluble"}
{"sequence": "MASMQKLINSVQNYAWGSKTALTELYGIANPQQQPMAELWMGAHPKSSSRITTANGETVSLRDAIEKNKTAMLGEAVANRFGELPFLFKVLCAAQPLSIQVHPNKRNSEIGFAKENAAGIPMDAAERNYKDPNHKPELVFALTPFLAMNAFREFSDIVSLLQPVAGAHSAIAHFLQVPNAERLSQLFASLLNMQGEEKSRALAVLKAALNSQQGEPWQTIRVISEYYPDDSGLFSPLLLNVVKLNPGEAMFLFAETPHAYLQGVALEVMANSDNVLRAGLTPKYIDIPELVANVKFEPKPAGELLTAPVKSGAELDFPIPVDDFAFSLHDLALQETSIGQHSAAILFCVEGEAVLRKDEQRLVLKPGESAFIGADESPVNASGTGRLARVYNKL", "soluble on expression in E. coli": "soluble"}
{"sequence": "MKALALIAHDAKKDEMVAFCLRHKDVLARYPLLATGTTGARIQEATGLAVERVLSGPLGGDLQIGARVAEGKVLAVVFLQDPLTAKPHEPDVQALMRVCNVHGVPLATNLVAAEALIAWIRKGTPQ", "soluble on expression in E. coli": "soluble"}
{"sequence": "MKTWPAPTAPTPVRATVTVPGSKSQTNRALVLAALAAAQGRGASTISGALRSRDTELMLDALQTLGLRVDGVGSELTVSGRIEPGPGARVDCGLAGTVLRFVPPLAALGSVPVTFDGDQQARGRPIAPLLDALRELGVAVDGTGLPFRVRGNGSLAGGTVAIDASASSQFVSGLLLSAASFTDGLTVQHTGSSLPSAPHIAMTAAMLRQAGVDIDDSTPNRWQVRPGPVAARRWDIEPDLTNAVAFLSAAVVSGGTVRITGWPRVSVQPADHILAILRQLNAVVIHADSSLEVRGPTGYDGFDVDLRAVGELTPSVAALAALASPGSVSRLSGIAHLRGHETDRLAALSTEINRLGGTCRETPDGLVITATPLRPGIWRAYADHRMAMAGAIIGLRVAGVEVDDIAATTKTLPEFPRLWAEMVGPGQGWGYPQPRSGQRARRATGQGSGGKLAAALEHHHHH", "soluble on expression in E. coli": "soluble"}
{"sequence": "GPGSMQEEAISSAATGVGHVMVTFFTDSYAKAMPEESYAVPLNVLPEGLNVLVQSVLSVNDQVFDFLYNGEYITTTLQKFLSRRGVSTEELVNVEYTPALQAKESSHLPHDDWVSSVRVPFVGHSELLLTGSYDRCIRLWDADDCVAIGAHHDECVKEVVVHPMKPRSTATNTTRDSVKKRARSSLLEDFYCVSCSKDGRAAAWVFNATASKFQLLSSVKAHTDAIESIDISPGAGKYVATASWDCTVKVFEWSQVVDGATEPSAKEPLVSFTDHTRPALSCRFSAAKGAALLYSSGLDGTLKCMDVETAVLQKQYIGDHPVQGLAVRTVGGGGGGDLIIAACTDNRARLYDTRVGESTGSVKVFSGHKQWLYAASWLWRPDEGEVNGGNFFATASEDSTVRLWDLRCGTNALLTLDTSHTDGVLDVTYSGNGEIVSCGKDNSTKSFQCFKGDSLLN", "soluble on expression in E. coli": "not soluble"}
{"sequence": "MGSSHHHHHHSSGLVPRGSHMASMTGGQQMGRGSMNIAVVTDSTAYIPKEMREQHQIHMIPLQVVFREETYREEIELDWKSFYEEVKKHNELPTTSQPPIGELVALYEELGKSYDAVISIHLSSGISGTFSSAAAADSMVDNIDVYPFDSEISCLAQGFYALKAAELIKNGASSPEDIIKELEEMKKTVRAYFMVDDLAHLQRGGRLSSAQAFIGSLLKVKPILHFDNKVIVPFEKIRTRKKAISRIYELLDEDASKGLPMRAAVIHANREEEAAKIIEELSAKYPHVEFYNSYFGAVIGTHLGEGALGICWCFK", "soluble on expression in E. coli": "soluble"}
{"sequence": "MGSDKIHHHHHHMTAYNNNAIYFKNIASGSKGNSTFIWDAHDLIVIDFGITMKKFKEAISELTLGGLNKSIFISHEHADHVSGIRSVKKVDGADVYTRPATAEAANIKAYEIDNEVVIGNFEILAFDVPHDAADPVAFTVKWKDLKISVVSDLGTVTENVISNIRDSDILAFESNHDVSMLKTGRYPASLKRRILSQHGHLSNEQSAEAISKAINESTEIVLTHLSQENNKPEIALNEVKSYLKNRDIKYKDVECADQYVGSSLKSLKT", "soluble on expression in E. coli": "not soluble"}
{"sequence": "MKPEKRHATESMTMEALLDLLPKDAATDPTGRRLAELVTRIATKRVPVSSFSRIWNLGSLQARVTIGYVAYWLRSRFADSDEKQRLRNEAHLAAALRLFGTMGYLRGAVMKIGQLLANLPEVVPEEFAEVLSALHFEAPPMHFSLVRELFLDEFGREPEELFASFDRQAFAAASLGQVHRARLKSGEEVAVKIQYPGIARTIKADLRNLRLLLQPLCLTNDWQNTLDKLADIEQMLLMETDYEQEARFCREARLLFTTEDRVVVPRVFDDYSTKRVLTTEFLTGCHLDQFLAGNPSQAERDHFTTLLTVATMRIYYRLHWFCADPHPGNFIFMLDGRLGLIDFGCTRAMNGEEWRLICELEQAHQEEDAEQFDRVIARATLYDSPEAMGKEQLAVVRRNVLWNMEPWLKEGLFDFGDREFFMRGIDGLMELTRKRYTRGSPLYLWSTRFVLGGRAVCYQMRGRCEFQEIFRQESAWVCPEPPILEHHHHHH", "soluble on expression in E. coli": "not soluble"}
{"sequence": "MMAESTGVDRGIQSLIAARKSLKLSLEKSKAIGLALGKTGPRFDEIEQRLPLLEAAVRPIRADGEALKDVGGNINRAVGPAAAVLKVFDAVHGLEKSLLSDPKNDLSSYLSVLKRLEEALKFLGENCGLAIQWLEDIVEYLDDHHVADEKYLSNLKKSLRGLSEFHNDRGGGEEKERSQLRLDGGLRNAALDKLENEFRRLLKDNSVPLPMASPSSLGDQACIAPSQLPVTVIHKLQAILGRLRANNRLDKCISIYVEVRSLNVRASLQALDLDYLDISVSEFNDVQSIEGYIAQWGNHLEFAVKHLFEAEFKLCNDVFERLGLNVWMDCFSKIAAQAGMLAFLQFGKTVTDSKKDPIKLLKLLDIFTSLNKLRADFNRLFGGAACIEIQNFTRDLIKRIIDGAAEIFWELLVQVEIQKQTPPPSDGGVPRLVSFVTDYCNKLIGDKYKSTLTQVLLIHKSWRSERFQDNQLMVEVLRIIKAIEQNLDVWMKAYPDQTLAHFFGMNNHWHLYKNLKGTNIGDHLGDSWLKEHDQYKEYYATVFLRDSWGKLPSHLSREGLILFSGGHATARDLVKKRLKAFNDAFDEMYKKQASWVLPEKDLRDRVCQQIVQAIVPVYRSYMQNYGPLVEKDASSSKYVRYTVVALEKILSSLYMPKPMRYGSFKGTPPSEKFKNDVDLRRTTSAVV", "soluble on expression in E. coli": "soluble"}
{"sequence": "MADKREPAPGWPILKGEYEVGDVKNSVLVITCGSHLPGKPILDAGAACTGSCKTENLGIEKVVAHIISNPNIRYLLVTGSEVKGHITGQSMMSLHANGVKENRIAGALGAIPYVENLNAAAVARFQEQVQVVNLLDTEDMGAITSKVRELASKDPGAFDADPLVVEISEEGEEEEEGGVVRPVSGEIAVLRSRLKAIEARMMDI", "soluble on expression in E. coli": "not soluble"}
